Measurements taken from publication PMC11522930, “2,2-Difluoro Derivatives of Fucose Can Inhibit Cell Surface Fucosylation without Causing Slow Transfer to Acceptors” (JACS Au, 2024).

Substrate: C[C@@H]1O[C@H](OP(=O)(O)OP(=O)(O)OC[C@H]2O[C@@H](n3cnc4c(=O)[nH]c(N)nc43)[C@H](O)[C@@H]2O)[C@@H](O)[C@H](O)[C@@H]1O
Assay: GDP-Glo glycosyltransferase assay, nonlinear regression
Type: biochemical, Homo sapiens
Conditions: saturating biantennary N-glycan acceptor 7; 1 h
From the text: GDP-Glo glycosyltransferase assay, nonlinear regression on FUT8

B1: FUT8 (Homo sapiens) (protein)
chain: MRPWTGSWRWIMLILFAWGTLLFYIGGHLVRDNDHPDHSSRELSKILAKLERLKQQNEDLRRMAESLRIPEGPIDQGPAIGRVRVLEEQLVKAKEQIENYKKQTRNGLGKDHEILRRRIENGAKELWFFLQSELKKLKNLEGNELQRHADEFLLDLGHHERSIMTDLYYLSQTDGAGDWREKEAKDLTELVQRRITYLQNPKDCSKAKKLVCNINKGCGYGCQLHHVVYCFMIAYGTQRTLILESQNWRYATGGWETVFRPVSETCTDRSGISTGHWSGEVKDKNVQVVELPIVDSLHPRPPYLPLAVPEDLADRLVRVHGDPAVWWVSQFVKYLIRPQPWLEKEIEEATKKLGFKHPVIGVHVRRTDKVGTEAAFHPIEEYMVHVEEHFQLLARRMQVDKKRVYLATDDPSLLKEAKTKYPNYEFISDNSISWSAGLHNRYTENSLRGVILDIHFLSQADFLVCTFSSQVCRVAYEIMQTLHPDASANFHSLDDIYYFGGQNAHNQIAIYAHQPRTADEIPMEPGDIIGVAGNHWDGYSKGVNRKLGRTGLYPSYKVREKIETVKYPTYPEAEK
notes: isolated enzyme; construct not described in main text
Km: 33.8 ± 2.5 µM
